One protein from PMC4783942, “Microwave-Assisted Synthesis of Glycoconjugates by Transgalactosylation with Recombinant Thermostable β-Glycosidase from Pyrococcus” (International Journal of Molecular Sciences, 2016) can be followed below.

Substrate in the series: CC(=O)N[C@@H]1[C@@H](O)[C@H](O)[C@@H](CO)O[C@H]1NC(=S)NCCNC(=O)OC(C)(C)C
The series is described as follows: transgalactosylation kinetics, HPLC. Type of series: biochemical, Pyrococcus woesei. To be noted: acceptor substrate varied, donor lactose, 85 °C thermal heating, citrate-phosphate buffer pH 5.5.

B1: β-glycosidase from Pyrococcus woesei (DSM 3773) (Pyrococcus woesei; T436I) (protein)
chain: MFPEKFLWGVAQSGFQFEMGDKLRRNIDTNTDWWHWVRDKTNIEKGLVSGDLPEEGINNYELYEKDHEIARKLGLNAYRIGIEWSRIFPWPTTFIDVDYSYNESYNLIEDVKITKDTLEELDEIANKREVAYYRSVINSLRSKGFKVIVNLNHFTLPYWLHDPIEARERALTNKRNGWVNPRTVIEFAKYAAYIAYKFGDIVDMWSTFNEPMVVVELGYLAPYSGFPPGVLNPEAAKLAILHMINAHALAYRQIKKFDTEKADKDSKEPAEVGIIYNNIGVAYPKDPNDSKDVKAAENDNFFHSGLFFEAIHKGKLNIEFDGETFIDAPYLKGNDWIGVNYYTREVVTYQEPMFPSIPLITFKGVQGYGYACRPGTLSKDDRPVSDIGWELYPEGMYDSIVEAHKYGVPVYVTENGIADSKDILRPYYIASHIKMIEKAFEDGYEVKGYFHWALTDNFEWALGFRMRFGLYEVNLITKERIPREKSVSIFREIVANNGVTKKIEEELLRG
notes: N-terminal His6-tag (pETDuet-1, tag kept), E. coli Rosetta2(DE3)pLysS; cloned gene differs from AF043283.1 by T436I, as in P. furiosus E08095.1 / AAC44387.1
As to B1, the Michaelis-Menten constant (Km) (as a rule, the concentration of substrate that gives half-maximal velocity) is listed as 15.6 mM.
